Data reported in paper PMC10042821, “Cryo-EM structure of human eIF5A-DHS complex reveals the molecular basis of hypusination-associated neurodegenerative disorders” (Nature Communications, 2023).

Tests used:
[1] = target: the molecule itself; assay: cryo-EM structure; complex reconstituted from purified eIF5A-1 and DHS K329A (2 mole eIF5A per 1 mole DHS), 200 mM glycine/NaOH pH 9.3, 200 mM NaCl, 1 mM NAD, 1 mM SPD, purified by SEC; 2.8 A
[2] = target: the molecule itself; assay: mass photometry; Refeyn OneMP, final concentration ~1-5 nM; oligomeric state of DHS variants

Protein | stoichiometry N [1] | stoichiometry N [2]
deoxyhypusine synthase K329A, catalytically dead variant, tag-free (enzyme, human, UniProt P49366 1-369, looked up, deoxyhypusine synthase (DHS), Homo sapiens, UniProt P49366, residues 1-369; Tag removal follows the general purification procedure; used for cryo-EM, HDX-MS and crystallography; also called DHS^K329A; source: E. coli, purified (HisTrap, TEV cleavage, reverse HisTrap, SEC); not shown: His6, N-terminal, cleaved) MEGSLEREAPAGALAAVLKHSSTLPPESTQVRGYDFNRGVNYRALLEAFGTTGFQATNFGRAVQQVNAMIEKKLEPLSQDEDQHADLTQSRRPLTSCTIFLGYTSNLISSGIRETIRYLVQHNMVDVLVTTAGGVEEDLIKCLAPTYLGEFSLRGKELRENGINRIGNLLVPNENYCKFEDWLMPILDQMVMEQNTEGVKWTPSKMIARLGKEINNPESVYYWAQKNHIPVFSPALTDGSLGDMIFFHSYKNPGLVLDIVEDLRLINTQAIFAKCTGMIILGGGVVKHHIANANLMRNGADYAVYINTAQEFDGSDSGARPDEAVSWGAIRVDAQPVKVYADASLVFPLLVAETFAQKMDAFMHEKNED | 4 | 
deoxyhypusine synthase N173S, patient-derived variant, tag-free (enzyme, human, UniProt P49366 1-369, looked up, deoxyhypusine synthase (DHS), Homo sapiens, UniProt P49366, residues 1-369, pathological variant N173S; Tag removal follows the general purification procedure; also called DHS^N173S; source: E. coli, purified from the soluble fraction (HisTrap, TEV cleavage, reverse HisTrap, SEC); not shown: His6, N-terminal, cleaved) MEGSLEREAPAGALAAVLKHSSTLPPESTQVRGYDFNRGVNYRALLEAFGTTGFQATNFGRAVQQVNAMIEKKLEPLSQDEDQHADLTQSRRPLTSCTIFLGYTSNLISSGIRETIRYLVQHNMVDVLVTTAGGVEEDLIKCLAPTYLGEFSLRGKELRENGINRIGNLLVPSENYCKFEDWLMPILDQMVMEQNTEGVKWTPSKMIARLGKEINNPESVYYWAQKNHIPVFSPALTDGSLGDMIFFHSYKNPGLVLDIVEDLRLINTQAIFAKCTGMIILGGGVVKHHIANANLMRNGADYAVYINTAQEFDGSDSGARPDEAVSWGKIRVDAQPVKVYADASLVFPLLVAETFAQKMDAFMHEKNED |  | 4
deoxyhypusine synthase delY305_I306, patient-derived variant, tag-free (enzyme, human, UniProt P49366 1-369, looked up, deoxyhypusine synthase (DHS), Homo sapiens, UniProt P49366, residues 1-369, pathological variant lacking Y305 and I306; Tag removal follows the general purification procedure; also called DHS^delY305_I306; DHS^del305Y_306I; source: E. coli, purified from the soluble fraction (HisTrap, TEV cleavage, reverse HisTrap, SEC); not shown: His6, N-terminal, cleaved) MEGSLEREAPAGALAAVLKHSSTLPPESTQVRGYDFNRGVNYRALLEAFGTTGFQATNFGRAVQQVNAMIEKKLEPLSQDEDQHADLTQSRRPLTSCTIFLGYTSNLISSGIRETIRYLVQHNMVDVLVTTAGGVEEDLIKCLAPTYLGEFSLRGKELRENGINRIGNLLVPNENYCKFEDWLMPILDQMVMEQNTEGVKWTPSKMIARLGKEINNPESVYYWAQKNHIPVFSPALTDGSLGDMIFFHSYKNPGLVLDIVEDLRLINTQAIFAKCTGMIILGGGVVKHHIANANLMRNGADYAVNTAQEFDGSDSGARPDEAVSWGKIRVDAQPVKVYADASLVFPLLVAETFAQKMDAFMHEKNED |  | 2
